The values below come from paper doi:10.1101/2025.03.15.643416.

The data set has as its target MMLVRT-WT (Moloney murine leukemia virus, UniProt P03355 660-1330). Kind of data set: DSF thermal shift.

B1: T/P (RNA template/DNA primer) (DNA:RNA)
DNA: TGGAATCAGGTGTCGCACTCTG
RNA: AACAGAGUGCGACACCUGAUUCCAU
For B1, the binding result is recorded as “binds”.
